Laboratory results taken from PMC4877045.

Molecular target: cleaved human TNFα (human)
Test: SEC; SEC-HPLC on an analytic TSK G3000SWXL column, PBS mobile phase, 1 ml/min, OD280; molecular weight estimated from retention time against a protein size standard; self-association (trimer)

## cleaved human TNFα (ligand)
  stoichiometry N: 3
